In patent US20200199241A1 (Chugai, published 2020) one finds Kd data, which are given here for nine molecules.

Test [1] concerns the target T1, human FcRn (soluble human FcRn complexed with β2-microglobulin) (human, UniProt P61769 21-119, limits assumed).
T1 construct: also called hFcRn
Briefly: SPR, pH 7.0.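 Also: antibodies captured on a Protein L sensor chip with human FcRn injected as analyte, KD calculated from fitted association and dissociation rate constants.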 In general terms: In SPR one partner is held on a chip, and binding of the other changes the refractive index at the surface.

The target of test [2] is T2, soluble human FcRn complexed with β2-microglobulin (human, UniProt P61769 21-119, limits assumed).
T2 construct: also called hFcRn
T2 sequence (chain, as listed by the source limits assumed, chain 1 of 2): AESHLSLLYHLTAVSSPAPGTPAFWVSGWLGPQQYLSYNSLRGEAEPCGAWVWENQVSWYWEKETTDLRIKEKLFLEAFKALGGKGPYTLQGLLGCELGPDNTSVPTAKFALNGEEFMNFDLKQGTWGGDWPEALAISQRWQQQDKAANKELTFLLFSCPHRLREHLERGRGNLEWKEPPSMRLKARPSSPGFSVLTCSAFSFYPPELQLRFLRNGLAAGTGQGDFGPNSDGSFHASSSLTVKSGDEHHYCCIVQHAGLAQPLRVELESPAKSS
T2 sequence (P61769 21-119 limits assumed, chain 2 of 2): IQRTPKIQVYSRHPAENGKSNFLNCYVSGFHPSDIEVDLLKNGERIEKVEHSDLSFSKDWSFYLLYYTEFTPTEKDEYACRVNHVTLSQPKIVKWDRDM
Briefly: Biacore SPR, pH 7.0.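 Also: test antibodies captured on a Protein L chip with human FcRn flowed over as analyte, KD obtained as the ratio of dissociation to association rate constants.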

T1 sequence (chain, as listed by the source limits assumed, chain 1 of 2): as the sequence (chain, as listed by the source limits assumed, chain 1 of 2) above
T1 sequence (P61769 21-119 limits assumed, chain 2 of 2): as the sequence (P61769 21-119 limits assumed, chain 2 of 2) above

B1: IgG1-F744 (antibody)
heavy: QVQLQESGPGLVKPSETLSLTCAVSGHSISHDHAWSWVRQPPGEGLEWIGFISYSGITNYNPSLQGRVTISRDNSKNTLYLQMNSLRAEDTAVYYCARSLARTTAMDYWGEGTLVTVSSASTKGPSVFPLAPSSKSTSGGTAALGCLVKDYFPEPVTVSWNSGALTSGVHTFPAVLQSSGLYSLSSVVTVPSSSLGTQTYICNVNHKPSNTKVDKKVEPKSCDKTHTCPPCPAPELLGGDSVFLFPPKPKDFLYISRTPEVTCVVVDVSHEDPEVKFNWYVDGVEVHNAKTKPREEQYNSTYRVVSVLTVLHQDWLNGKEYKCKVSNKALPAPIEKTISKAKGQPREPQVYTLPPSRDELTKNQVSLTCLVKGFYPSDIAVEWESNGQPENNYKTTPPVLDSDGSFFLYSKLTVDKSRWQQGNVFSCSVMHEALHYHYTQKSLSLSP
light: not shown
notes: EU numbering; copies: 2 + 2
Consider B1, for which, in test [1], the Kd (commonly the concentration at which binding is half-saturated) was found to be 990 nM.

B2: IgG1-F890 (antibody)
heavy: QVQLQESGPGLVKPSETLSLTCAVSGHSISHDHAWSWVRQPPGEGLEWIGFISYSGITNYNPSLQGRVTISRDNSKNTLYLQMNSLRAEDTAVYYCARSLARTTAMDYWGEGTLVTVSSASTKGPSVFPLAPSSKSTSGGTAALGCLVKDYFPEPVTVSWNSGALTSGVHTFPAVLQSSGLYSLSSVVTVPSSSLGTQTYICNVNHKPSNTKVDKKVEPKSCDKTHTCPPCPAPELLGGPSVFLFPPKPKDTLYISRTPEVTCVVVDVSHEDPEVKFNWYVDGVEVHNAKTKPREEQYNSTYRVVSVLTVLHQDWLNGKEYKCKVSNKALPAPIEKTISKAKGQPREPQVYTLPPSRDELTKNQVSLTCLVKGFYPSDIAVEWESNGQPENNYKTTPPVLDSDGSFFLYSKLTVDKSRWQQGNVFSCSVMHEALHYHVTQKSLSLSP
light: not shown
notes: copies: 2 + 2
Consider B2, for which, in test [2], the Kd was 110 nM.

B3: IgG1-F746 (antibody)
heavy: QVQLQESGPGLVKPSETLSLTCAVSGHSISHDHAWSWVRQPPGEGLEWIGFISYSGITNYNPSLQGRVTISRDNSKNTLYLQMNSLRAEDTAVYYCARSLARTTAMDYWGEGTLVTVSSASTKGPSVFPLAPSSKSTSGGTAALGCLVKDYFPEPVTVSWNSGALTSGVHTFPAVLQSSGLYSLSSVVTVPSSSLGTQTYICNVNHKPSNTKVDKKVEPKSCDKTHTCPPCPAPELLGGDSVFLFPPKPKDHLYISRTPEVTCVVVDVSHEDPEVKFNWYVDGVEVHNAKTKPREEQYNSTYRVVSVLTVLHQDWLNGKEYKCKVSNKALPAPIEKTISKAKGQPREPQVYTLPPSRDELTKNQVSLTCLVKGFYPSDIAVEWESNGQPENNYKTTPPVLDSDGSFFLYSKLTVDKSRWQQGNVFSCSVMHEALHYHYTQKSLSLSP
light: not shown
notes: EU numbering; copies: 2 + 2
B3 had an equilibrium dissociation constant (Kd) in test [2] of 600 nM.

B4: IgG1-F749 (antibody)
heavy: QVQLQESGPGLVKPSETLSLTCAVSGHSISHDHAWSWVRQPPGEGLEWIGFISYSGITNYNPSLQGRVTISRDNSKNTLYLQMNSLRAEDTAVYYCARSLARTTAMDYWGEGTLVTVSSASTKGPSVFPLAPSSKSTSGGTAALGCLVKDYFPEPVTVSWNSGALTSGVHTFPAVLQSSGLYSLSSVVTVPSSSLGTQTYICNVNHKPSNTKVDKKVEPKSCDKTHTCPPCPAPELLGGDSVFLFPPKPKDLLYISRTPEVTCVVVDVSHEDPEVKFNWYVDGVEVHNAKTKPREEQYNSTYRVVSVLTVLHQDWLNGKEYKCKVSNKALPAPIEKTISKAKGQPREPQVYTLPPSRDELTKNQVSLTCLVKGFYPSDIAVEWESNGQPENNYKTTPPVLDSDGSFFLYSKLTVDKSRWQQGNVFSCSVMHEALHYHYTQKSLSLSP
light: not shown
notes: EU numbering; copies: 2 + 2
For B4, the Kd in test [2] was determined as 510 nM. The Kd values of the last two molecules are within 1.5-fold of each other.

B5: IgG1-F745 (antibody)
heavy: QVQLQESGPGLVKPSETLSLTCAVSGHSISHDHAWSWVRQPPGEGLEWIGFISYSGITNYNPSLQGRVTISRDNSKNTLYLQMNSLRAEDTAVYYCARSLARTTAMDYWGEGTLVTVSSASTKGPSVFPLAPSSKSTSGGTAALGCLVKDYFPEPVTVSWNSGALTSGVHTFPAVLQSSGLYSLSSVVTVPSSSLGTQTYICNVNHKPSNTKVDKKVEPKSCDKTHTCPPCPAPELLGGDSVFLFPPKPKDGLYISRTPEVTCVVVDVSHEDPEVKFNWYVDGVEVHNAKTKPREEQYNSTYRVVSVLTVLHQDWLNGKEYKCKVSNKALPAPIEKTISKAKGQPREPQVYTLPPSRDELTKNQVSLTCLVKGFYPSDIAVEWESNGQPENNYKTTPPVLDSDGSFFLYSKLTVDKSRWQQGNVFSCSVMHEALHYHYTQKSLSLSP
light: not shown
notes: EU numbering; copies: 2 + 2
B5 registered an equilibrium dissociation constant (Kd) in test [1] of 660 nM.

B6: IgG1-F751 (antibody)
heavy: QVQLQESGPGLVKPSETLSLTCAVSGHSISHDHAWSWVRQPPGEGLEWIGFISYSGITNYNPSLQGRVTISRDNSKNTLYLQMNSLRAEDTAVYYCARSLARTTAMDYWGEGTLVTVSSASTKGPSVFPLAPSSKSTSGGTAALGCLVKDYFPEPVTVSWNSGALTSGVHTFPAVLQSSGLYSLSSVVTVPSSSLGTQTYICNVNHKPSNTKVDKKVEPKSCDKTHTCPPCPAPELLGGDSVFLFPPKPKDNLYISRTPEVTCVVVDVSHEDPEVKFNWYVDGVEVHNAKTKPREEQYNSTYRVVSVLTVLHQDWLNGKEYKCKVSNKALPAPIEKTISKAKGQPREPQVYTLPPSRDELTKNQVSLTCLVKGFYPSDIAVEWESNGQPENNYKTTPPVLDSDGSFFLYSKLTVDKSRWQQGNVFSCSVMHEALHYHYTQKSLSLSP
light: not shown
notes: EU numbering; copies: 2 + 2
For the molecule B6, binding in test [2] was characterised by a dissociation constant (Kd) of 530 nM.

B7: IgG1-F747 (antibody)
heavy: QVQLQESGPGLVKPSETLSLTCAVSGHSISHDHAWSWVRQPPGEGLEWIGFISYSGITNYNPSLQGRVTISRDNSKNTLYLQMNSLRAEDTAVYYCARSLARTTAMDYWGEGTLVTVSSASTKGPSVFPLAPSSKSTSGGTAALGCLVKDYFPEPVTVSWNSGALTSGVHTFPAVLQSSGLYSLSSVVTVPSSSLGTQTYICNVNHKPSNTKVDKKVEPKSCDKTHTCPPCPAPELLGGDSVFLFPPKPKDILYISRTPEVTCVVVDVSHEDPEVKFNWYVDGVEVHNAKTKPREEQYNSTYRVVSVLTVLHQDWLNGKEYKCKVSNKALPAPIEKTISKAKGQPREPQVYTLPPSRDELTKNQVSLTCLVKGFYPSDIAVEWESNGQPENNYKTTPPVLDSDGSFFLYSKLTVDKSRWQQGNVFSCSVMHEALHYHYTQKSLSLSP
light: not shown
notes: EU numbering; copies: 2 + 2
As to B7, in test [2], the affinity, expressed as Kd, was 280 nM.

B8: IgG1-F750 (antibody)
heavy: QVQLQESGPGLVKPSETLSLTCAVSGHSISHDHAWSWVRQPPGEGLEWIGFISYSGITNYNPSLQGRVTISRDNSKNTLYLQMNSLRAEDTAVYYCARSLARTTAMDYWGEGTLVTVSSASTKGPSVFPLAPSSKSTSGGTAALGCLVKDYFPEPVTVSWNSGALTSGVHTFPAVLQSSGLYSLSSVVTVPSSSLGTQTYICNVNHKPSNTKVDKKVEPKSCDKTHTCPPCPAPELLGGDSVFLFPPKPKDMLYISRTPEVTCVVVDVSHEDPEVKFNWYVDGVEVHNAKTKPREEQYNSTYRVVSVLTVLHQDWLNGKEYKCKVSNKALPAPIEKTISKAKGQPREPQVYTLPPSRDELTKNQVSLTCLVKGFYPSDIAVEWESNGQPENNYKTTPPVLDSDGSFFLYSKLTVDKSRWQQGNVFSCSVMHEALHYHYTQKSLSLSP
light: not shown
notes: EU numbering; copies: 2 + 2
Regarding B8, binding in test [2] was put at a Kd of 300 nM.

B9: IgG1-F753 (antibody)
heavy: QVQLQESGPGLVKPSETLSLTCAVSGHSISHDHAWSWVRQPPGEGLEWIGFISYSGITNYNPSLQGRVTISRDNSKNTLYLQMNSLRAEDTAVYYCARSLARTTAMDYWGEGTLVTVSSASTKGPSVFPLAPSSKSTSGGTAALGCLVKDYFPEPVTVSWNSGALTSGVHTFPAVLQSSGLYSLSSVVTVPSSSLGTQTYICNVNHKPSNTKVDKKVEPKSCDKTHTCPPCPAPELLGGDSVFLFPPKPKDQLYISRTPEVTCVVVDVSHEDPEVKFNWYVDGVEVHNAKTKPREEQYNSTYRVVSVLTVLHQDWLNGKEYKCKVSNKALPAPIEKTISKAKGQPREPQVYTLPPSRDELTKNQVSLTCLVKGFYPSDIAVEWESNGQPENNYKTTPPVLDSDGSFFLYSKLTVDKSRWQQGNVFSCSVMHEALHYHYTQKSLSLSP
light: not shown
notes: EU numbering; copies: 2 + 2
Consider B9, for which, in test [2], the Kd came out at 180 nM.
